# Reference: US20230192890A1
# T1: Ala mutant SEQ ID NO: 27 (human)
# T1 sequence (peptide): AENMDDQWMQDEMEIGY
# T2: Ala mutant SEQ ID NO: 28 (human)
# T2 sequence (peptide): EANMDDQWMQDEMEIGY
# T3: Ala mutant SEQ ID NO: 29 (human)
# T3 sequence (peptide): EEAMDDQWMQDEMEIGY
# T4: Ala mutant SEQ ID NO: 30 (human)
# T4 sequence (peptide): EENADDQWMQDEMEIGY
# T5: Ala mutant SEQ ID NO: 31 (human)
# T5 sequence (peptide): EENMADQWMQDEMEIGY
# T6: Ala mutant SEQ ID NO: 33 (human)
# T6 sequence (peptide): EENMDDAWMQDEMEIGY
# T7: Ala mutant SEQ ID NO: 36 (human)
# T7 sequence (peptide): EENMDDQWMADEMEIGY
# T8: Ala mutant SEQ ID NO: 37 (human)
# T8 sequence (peptide): EENMDDQWMQAEMEIGY
# T9: Ala mutant SEQ ID NO: 38 (human)
# T9 sequence (peptide): EENMDDQWMQDAMEIGY
# T10: Ala mutant SEQ ID NO: 39 (human)
# T10 sequence (peptide): EENMDDQWMQDEAEIGY
# T11: Ala mutant SEQ ID NO: 40 (human)
# T11 sequence (peptide): EENMDDQWMQDEMAIGY
# T12: Ala mutant SEQ ID NO: 41 (human)
# T12 sequence (peptide): EENMDDQWMQDEMEAGY
# T13: Ala mutant SEQ ID NO: 42 (human)
# T13 sequence (peptide): EENMDDQWMQDEMEIAY
# T14: Ala mutant SEQ ID NO: 43 (human)
# T14 sequence (peptide): EENMDDQWMQDEMEIGA
# T15: Ala mutant having 3-amino acid substitution, SEQ ID NO: 44 (human)
# T15 sequence (peptide): AAAMDDQWMQDEMEIGY
# T16: Ala mutant having 3-amino acid substitution, SEQ ID NO: 46 (human)
# T16 sequence (peptide): EENMDDAAAQDEMEIGY
# T17: Ala mutant having 3-amino acid substitution, SEQ ID NO: 47 (human)
# T17 sequence (peptide): EENMDDQWMAAAMEIGY
# T18: Ala mutant having 3-amino acid substitution, SEQ ID NO: 48 (human)
# T18 sequence (peptide): EENMDDQWMQDEAAAGY
# T19: Ala mutant having 3-amino acid substitution, SEQ ID NO: 49 (human)
# T19 sequence (peptide): EENMDDQWMQDEMEIAA
# T20: TA0096 (peptide antigen corresponding to positions 340 to 356 of PAD4) (human)
# T20 sequence (peptide): EENMDDQWMQDEMEIGY
# Experiments:
# [1] = molecular target: T1, Ala mutant SEQ ID NO: 27 (human); experiment: ELISA, peptide on plate (10 ug/mL)
# [2] = molecular target: T2, Ala mutant SEQ ID NO: 28 (human); experiment: ELISA, peptide on plate (10 ug/mL)
# [3] = molecular target: T3, Ala mutant SEQ ID NO: 29 (human); experiment: ELISA, peptide on plate (10 ug/mL)
# [4] = molecular target: T4, Ala mutant SEQ ID NO: 30 (human); experiment: ELISA, peptide on plate (10 ug/mL)
# [5] = molecular target: T5, Ala mutant SEQ ID NO: 31 (human); experiment: ELISA, peptide on plate (10 ug/mL)
# [6] = molecular target: T6, Ala mutant SEQ ID NO: 33 (human); experiment: ELISA, peptide on plate (10 ug/mL)
# [7] = molecular target: T7, Ala mutant SEQ ID NO: 36 (human); experiment: ELISA, peptide on plate (10 ug/mL)
# [8] = molecular target: T8, Ala mutant SEQ ID NO: 37 (human); experiment: ELISA, peptide on plate (10 ug/mL)
# [9] = molecular target: T9, Ala mutant SEQ ID NO: 38 (human); experiment: ELISA, peptide on plate (10 ug/mL)
# [10] = molecular target: T10, Ala mutant SEQ ID NO: 39 (human); experiment: ELISA, peptide on plate (10 ug/mL)
# [11] = molecular target: T11, Ala mutant SEQ ID NO: 40 (human); experiment: ELISA, peptide on plate (10 ug/mL)
# [12] = molecular target: T12, Ala mutant SEQ ID NO: 41 (human); experiment: ELISA, peptide on plate (10 ug/mL)
# [13] = molecular target: T13, Ala mutant SEQ ID NO: 42 (human); experiment: ELISA, peptide on plate (10 ug/mL)
# [14] = molecular target: T14, Ala mutant SEQ ID NO: 43 (human); experiment: ELISA, peptide on plate (10 ug/mL)
# [15] = molecular target: T15, Ala mutant having 3-amino acid substitution, SEQ ID NO: 44 (human); experiment: ELISA, peptide on plate (10 ug/mL)
# [16] = molecular target: T16, Ala mutant having 3-amino acid substitution, SEQ ID NO: 46 (human); experiment: ELISA, peptide on plate (10 ug/mL)
# [17] = molecular target: T17, Ala mutant having 3-amino acid substitution, SEQ ID NO: 47 (human); experiment: ELISA, peptide on plate (10 ug/mL)
# [18] = molecular target: T18, Ala mutant having 3-amino acid substitution, SEQ ID NO: 48 (human); experiment: ELISA, peptide on plate (10 ug/mL)
# [19] = molecular target: T19, Ala mutant having 3-amino acid substitution, SEQ ID NO: 49 (human); experiment: ELISA, peptide on plate (10 ug/mL)
# [20] = molecular target: T20, TA0096 (peptide antigen corresponding to positions 340 to 356 of PAD4) (human); experiment: ELISA, peptide on plate (10 ug/mL)
# [21] = molecular target: full-length recombinant mouse PAD4 (mouse) (UniProt Q9Z183); experiment: ELISA, mouse PAD4 on plate, antibody 1 ug/mL
# [22] = molecular target: full-length recombinant mouse PAD4 (mouse) (UniProt Q9Z183); experiment: ELISA, mouse PAD4 on plate, antibody 0.25 ug/mL
# [23] = molecular target: full-length recombinant mouse PAD4 (mouse) (UniProt Q9Z183); experiment: ELISA, mouse PAD4 on plate, antibody 0.0625 ug/mL
# [24] = molecular target: full-length recombinant mouse PAD4 (mouse) (UniProt Q9Z183); experiment: ELISA, mouse PAD4 on plate, antibody 0.015625 ug/mL
# [25] = molecular target: full-length recombinant mouse PAD4 (mouse) (UniProt Q9Z183); experiment: ELISA, mouse PAD4 on plate, antibody 0.0002441 ug/mL
# [26] = molecular target: full-length recombinant mouse PAD4 (mouse) (UniProt Q9Z183); experiment: ELISA, mouse PAD4 on plate, antibody 0.0009766 ug/mL
# [27] = molecular target: full-length recombinant mouse PAD4 (mouse) (UniProt Q9Z183); experiment: ELISA, mouse PAD4 on plate, antibody 0.0039063 ug/mL
# [28] = molecular target: full-length recombinant mouse PAD4 (mouse) (UniProt Q9Z183); experiment: ELISA, mouse PAD4 on plate, antibody 6.104E-05 ug/mL
# Sequence of full-length recombinant mouse PAD4 (mouse) (Q9Z183 whole entry): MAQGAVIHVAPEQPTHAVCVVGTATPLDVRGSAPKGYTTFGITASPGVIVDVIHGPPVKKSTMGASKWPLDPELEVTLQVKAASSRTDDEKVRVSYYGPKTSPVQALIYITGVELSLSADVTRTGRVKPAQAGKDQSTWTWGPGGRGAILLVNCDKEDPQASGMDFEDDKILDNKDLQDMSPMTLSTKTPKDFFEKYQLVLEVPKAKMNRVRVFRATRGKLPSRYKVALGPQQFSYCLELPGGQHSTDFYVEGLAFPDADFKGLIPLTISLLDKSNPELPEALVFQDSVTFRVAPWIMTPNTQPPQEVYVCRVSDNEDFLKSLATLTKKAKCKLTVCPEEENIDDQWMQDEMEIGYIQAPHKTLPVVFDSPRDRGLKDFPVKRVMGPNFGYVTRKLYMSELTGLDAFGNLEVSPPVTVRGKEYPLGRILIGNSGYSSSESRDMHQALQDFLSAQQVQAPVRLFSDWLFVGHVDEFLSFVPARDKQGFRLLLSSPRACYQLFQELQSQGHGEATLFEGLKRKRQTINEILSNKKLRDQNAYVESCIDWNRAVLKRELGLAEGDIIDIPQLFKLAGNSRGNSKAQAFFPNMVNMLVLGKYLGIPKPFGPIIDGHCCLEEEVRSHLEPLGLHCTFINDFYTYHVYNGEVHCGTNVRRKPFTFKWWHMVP
binder,measurement,setting,value
"G9 (antibody, IgG1, V domains shown) VH: AVTLDESGGGLQTPGGALSLVCKASGFTFSTYAMGWMRQAPGKGLEYVAAIRNDGSWTGYGAAVKGRATILRDNGQSTVRLQLSNLRAEDTGTYYCAKYTGSSGGSIGAWGHGTEVIVS VL: AVTQPASVSANLGGTVEITCSGGGRYYYGWYQQKSPGSAPVTVIYANDKRPSDIPSRFSGSKSGSTGTLTITGVQAEDEAVYFCGSAETSSYVFGAGTTLTVL",absorbance 490 nm/630 nm,[1],1.93 OD
same,absorbance 490 nm/630 nm,[2],1.96 OD
same,absorbance 490 nm/630 nm,[3],1.94 OD
same,absorbance 490 nm/630 nm,[4],2.03 OD
same,absorbance 490 nm/630 nm,[5],1.48 OD
same,absorbance 490 nm/630 nm,[6],1.98 OD
same,absorbance 490 nm/630 nm,[7],1.87 OD
same,absorbance 490 nm/630 nm,[8],1.88 OD
same,absorbance 490 nm/630 nm,[9],1.96 OD
same,absorbance 490 nm/630 nm,[10],1.87 OD
same,absorbance 490 nm/630 nm,[11],1.88 OD
same,absorbance 490 nm/630 nm,[12],1.89 OD
same,absorbance 490 nm/630 nm,[13],1.85 OD
same,absorbance 490 nm/630 nm,[14],1.88 OD
same,absorbance 490 nm/630 nm,[15],1.92 OD
same,absorbance 490 nm/630 nm,[16],0.131 OD
same,absorbance 490 nm/630 nm,[17],1.85 OD
same,absorbance 490 nm/630 nm,[18],1.89 OD
same,absorbance 490 nm/630 nm,[19],1.92 OD
same,absorbance 490 nm/630 nm,[20],1.85 OD
same,absorbance 490 nm/630 nm,[21],2.3 OD
same,absorbance 490 nm/630 nm,[22],2.25 OD
same,absorbance 490 nm/630 nm,[23],2.24 OD
same,absorbance 490 nm/630 nm,[24],2.21 OD
same,absorbance 490 nm/630 nm,[25],0.181 OD
same,absorbance 490 nm/630 nm,[26],0.542 OD
same,absorbance 490 nm/630 nm,[27],1.39 OD
same,absorbance 490 nm/630 nm,[28],0.079 OD
